Experimental findings from US20240084003A1 (SIMCERE ZAIMING PHARMACEUTICAL, published 2024) are described below.

By EC50 (read off the curve) is commonly meant the concentration giving half of the maximal effect.

Assay [1] concerns the target T1, human CD22-ECD-His protein (human, UniProt P20273 20-687).
T1 construct: Made in house in HEK293E; also called hCD22-ECD-His; recombinant human CD22-ECD His protein; not shown: His tag
T1 sequence: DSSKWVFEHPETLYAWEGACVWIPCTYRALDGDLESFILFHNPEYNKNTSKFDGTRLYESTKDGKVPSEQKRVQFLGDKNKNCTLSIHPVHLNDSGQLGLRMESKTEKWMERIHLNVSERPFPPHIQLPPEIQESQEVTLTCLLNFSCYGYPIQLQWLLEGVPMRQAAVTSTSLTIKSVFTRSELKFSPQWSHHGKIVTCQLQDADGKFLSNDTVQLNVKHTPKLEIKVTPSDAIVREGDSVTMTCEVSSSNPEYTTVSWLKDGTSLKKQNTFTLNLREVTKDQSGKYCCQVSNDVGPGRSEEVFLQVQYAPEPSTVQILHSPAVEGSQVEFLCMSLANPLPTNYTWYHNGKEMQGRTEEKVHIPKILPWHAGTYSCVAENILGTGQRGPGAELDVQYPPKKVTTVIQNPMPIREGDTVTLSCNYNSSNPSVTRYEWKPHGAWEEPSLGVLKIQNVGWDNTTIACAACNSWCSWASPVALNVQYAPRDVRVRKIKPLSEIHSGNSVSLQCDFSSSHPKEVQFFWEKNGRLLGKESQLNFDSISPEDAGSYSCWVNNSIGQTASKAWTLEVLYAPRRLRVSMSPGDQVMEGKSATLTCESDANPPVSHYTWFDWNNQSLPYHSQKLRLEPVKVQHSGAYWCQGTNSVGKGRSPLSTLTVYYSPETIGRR
As to the kind of experiment: ELISA, Ab 0.001 nM. How it is done: (§1) In order to detect the binding activity of CD22 human-murine chimeric antibodies to CD22 protein, the purified human CD22-ECD-His protein obtained in Example 2 was diluted with PBS to a final concentration of 2 μg/mL, and then added to 96-well ELISA plate at 100 μl/well. The plate was sealed with plastic film and incubated overnight at 4° C., the plate was washed 2 times with PBS the next day, and then a blocking solution [PBS+2% (w/w) BSA] was added for blocking at room temperature for 2 hours. […] After incubation at 37° C. for 2 hours, the plate was washed 3 times with PBS. HRP (horseradish peroxidase)-labeled secondary antibody (purchased from Sigma, catalog number: A0170) was added, and incubated at 37° C. for 2 hours, and the plate was washed 5 times with PBS. TMB substrate was added at 50 μl/well, and incubated at room temperature for 30 minutes, then a stop solution (1.0 N HCl) was added at 50 μl/well.
On the technique in general: An ELISA detects its analyte on a solid surface through an enzyme-linked reagent.

The target of assay [2] is T1, human CD22-ECD-His protein. The experiment in a line: ELISA, human CD22-ECD-His coated. How it is done: as §1
The target in assay [3] is T1, human CD22-ECD-His protein. The experiment in a line: ELISA, Ab 0.00001 nM. How it is done:
as §1

The target of assay [4] is T1, human CD22-ECD-His protein. As to the kind of experiment: ELISA, Ab 0.01 nM. The method, then:
as §1

Assay [5] concerns the target T1, human CD22-ECD-His protein. As to the kind of experiment: ELISA, Ab 100.00 nM. The method, then: as §1
The target in assay [6] is T1, human CD22-ECD-His protein. The experiment in a line: ELISA, Ab 0.10 nM. How it is done:
as §1

For the next assay, the target named is T2, human CD22 domain5-7-His (human, UniProt P20273 414-687).
T2 construct: also called hCD22 domain5-7-His; not shown: His tag
T2 sequence: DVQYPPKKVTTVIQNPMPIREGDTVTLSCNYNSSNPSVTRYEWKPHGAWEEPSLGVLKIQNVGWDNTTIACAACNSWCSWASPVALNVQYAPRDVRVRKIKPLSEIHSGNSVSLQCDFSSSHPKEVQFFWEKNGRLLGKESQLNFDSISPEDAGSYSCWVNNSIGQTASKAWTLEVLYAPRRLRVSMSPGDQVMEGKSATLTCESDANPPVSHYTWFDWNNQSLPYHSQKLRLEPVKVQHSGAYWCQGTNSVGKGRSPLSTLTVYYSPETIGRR
As to the kind of experiment: ELISA, human CD22 domain5-7-His coated.

Assay [7] concerns the target T3, murine CD22 protein (ACROBiosystems, SI2-M52Ha) (murine, UniProt P35329 22-708).
T3 construct: extracellular domain; also called murine CD22-ECD; murine CD22-ECD-His
T3 sequence (looked up): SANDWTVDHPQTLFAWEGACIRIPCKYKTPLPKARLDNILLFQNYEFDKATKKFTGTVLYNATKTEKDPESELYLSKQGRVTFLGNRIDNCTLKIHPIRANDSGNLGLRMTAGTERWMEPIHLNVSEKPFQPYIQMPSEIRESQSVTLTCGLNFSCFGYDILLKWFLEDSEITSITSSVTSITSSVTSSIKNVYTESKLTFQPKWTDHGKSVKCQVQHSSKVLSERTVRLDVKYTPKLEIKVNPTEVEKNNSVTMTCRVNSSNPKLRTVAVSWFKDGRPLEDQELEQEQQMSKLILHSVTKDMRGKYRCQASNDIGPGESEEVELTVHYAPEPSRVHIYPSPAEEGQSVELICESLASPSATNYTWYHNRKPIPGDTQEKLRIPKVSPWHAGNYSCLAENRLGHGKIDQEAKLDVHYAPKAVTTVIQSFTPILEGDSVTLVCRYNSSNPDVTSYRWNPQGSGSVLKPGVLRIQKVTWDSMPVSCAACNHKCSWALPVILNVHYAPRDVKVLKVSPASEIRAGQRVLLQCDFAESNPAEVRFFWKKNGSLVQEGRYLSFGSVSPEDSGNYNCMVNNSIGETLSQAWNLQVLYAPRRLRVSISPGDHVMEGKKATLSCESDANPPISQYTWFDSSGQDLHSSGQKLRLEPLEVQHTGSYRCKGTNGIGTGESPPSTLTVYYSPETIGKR
As to the kind of experiment: ELISA, murine CD22-ECD-His coated. How it is done: as §1
In order to detect the species cross-binding activity of the chimeric antibodies, an ELISA plate was coated with commercial murine CD22 protein (ACROBiosystems, catalog number: SI2-M52Ha) and monkey CD22 protein (ACROBiosystems, catalog number: SI2-R52Ha), respectively, and the ELISA detection was performed according to the method in Example 5.1.

Assay [8] concerns the target T1, human CD22-ECD-His protein. The experiment in a line: ELISA, Ab 10.00 nM. The method, then: as §1
Assay [9] concerns the target T1, human CD22-ECD-His protein. The experiment in a line: ELISA, Ab 0.0001 nM. The method, then:
as §1

B1: F1.62.10 (antibody, human IgG1, kappa, V domains shown)
VH: QVQLQQSGPELVKPGASVKISCKASGYEFSSIWMNWVKQRPGEGLEWIGRIFPGDGEINYNEKFKGKATLTADRSSTTAYMQLSSLTSEDSAVYFCAGWRIYYGTYGAMDYWGQGTSVTVSS
VL: DIQMTQITSSLSASLGDRVTISCRASQDIGNYLNWYQQKPDGTVKLLIYYTSRLHSGVPSRFSGSGSRTDYSLTISNLQQEDIATYFCQQGNTLPWTFGGGTKLEIKR
notes: Human-murine chimeric IgG1, kappa
Consider B1, for which the OD450 was 1.07 OD450 in [1]; 0.24 OD450 in assay [3]; 2.16 OD450 in assay [4]; 2.93 OD450 in assay [5]; 2.79 OD450 in [6]; 2.67 OD450 in [8]. For the same molecule, the OD450 in [9] stood at 0.37 OD450. In addition, the concentration giving a half-maximal response (EC50 (read off the curve)) in assay [2] was around 0.02 nM. The binding result (with human CD22 domain5-7-His; in assay [7]) was “no binding (tested: 100 nM)” each time.

B2: F2.121.9 (antibody, human IgG1, lambda, V domains shown)
VH: EVQLVESGGGLVKPGGSLKLSCAASGFTFSDYVMSWIRQTPEKRLEWVATISDAGSYTFYPDNLKGRFTISRDNAKNNLYLQMNHLTSEDTAFYYCAIIYFGNYGGYWGQGTLVTVSV
VL: QAVVTQESALTTSPGGTVVLTCRSNTGAVTTSNYANWVQEKPDHLFTGLIGGTSNRAPGVPVRFSGSLIGDKAALTITGAQTEDDAMYFCALWYSTHWVFGGGTKLTVLG
notes: Human-murine chimeric IgG1, lambda
B2: the OD450 was 0.69 OD450 in [1]; 0.23 OD450 in assay [3]; 1.6 OD450 in assay [4]; 2.11 OD450 in [5]; 1.84 OD450 in assay [6]; 1.92 OD450 in assay [8]. The molecule also registered an OD450 in assay [9] of 0.33 OD450. Besides, the “EC50 (read off the curve)” value in assay [2] is around 0.03 nM. The binding result (with human CD22 domain5-7-His; in assay [7]) was “no binding (tested: 100 nM)” throughout.

B3: F1.161.7 (antibody, human IgG1, kappa, V domains shown)
VH: QVQLQQPGAELVKPGASVKMSCKASGYTFTSYWISWVKQRPGQGLEWIGDIYPGTGSSNYNEKFKSKATLTVDTSSSTAYMQLSSLTSEDSAVYYCARLKFEGIGYWGQGTTLTVSS
VL: QIVLTQSPAIMSASLGEEITLTCSASSSVSYMHWFQQKSGTSPKLLIYSISNLASGVPSRFSGSGSGTFYSLTISSVEAEDAADYYCHQWSSYPWTFGGGTKLEIKR
notes: as for B1
As for B3, the OD450 in assay [1] came to 1.22 OD450; in assay [3], 0.25 OD450; in [4], 2.34 OD450; in assay [5], 2.97 OD450; in [6], 2.61 OD450; in [8], 2.63 OD450. In addition, the OD450 in assay [9] amounted to 0.43 OD450. Moreover, the “EC50 (read off the curve)” value in assay [2] was around 0.02 nM. The binding result (in the assay with human CD22 domain5-7-His; in [7]) was “no binding (tested: 100 nM)” throughout.
